This assay has as its target Y75H holo-HasAp (heme-loaded hemophore HasAp, Y75H variant) (Pseudomonas aeruginosa) (UniProt G3XD33). As to the kind of experiment: SPR. In general terms: In SPR one partner is held on a chip, and binding of the other changes the refractive index at the surface.

For “HasR outer membrane receptor in styrene-maleic acid lipid nanodisc (HasR-SMALP)”, the Kd – broadly, the constant that tells how readily two partners part at equilibrium – was found to be 394 nM.

Source of the values: article PMC8672344.
